From patent US20160304617A1

Experiments:
[1] = biological target: Human 5T4 full length (human) (UniProt Q13641); assay: flow cytometry on PA1 cells, 5 µg/ml probe, anti-Fc FITC
[2] = biological target: Human 5T4 full length (human) (UniProt Q13641); assay: flow cytometry on PC3 cells, 5 µg/ml probe, anti-Fc FITC
[3] = biological target: Human 5T4 full length (human) (UniProt Q13641); assay: flow cytometry on A431 cells, 5 µg/ml probe, anti-Fc FITC
[4] = biological target: Human 5T4 full length (human) (UniProt Q13641); assay: flow cytometry on DLD1 cells, 5 µg/ml probe, anti-Fc FITC
[5] = biological target: Human 5T4 full length (human) (UniProt Q13641); assay: flow cytometry on HT29 cells, 5 µg/ml probe, anti-Fc FITC
[6] = biological target: Human 5T4 full length (human) (UniProt Q13641); assay: flow cytometry on BxPC3 cells, 5 µg/ml probe, anti-Fc FITC
[7] = biological target: Human 5T4 full length (human) (UniProt Q13641); assay: flow cytometry on LNCaP cells, 5 µg/ml probe, anti-Fc FITC
[8] = biological target: Human 5T4 full length (human) (UniProt Q13641); assay: flow cytometry on SKOV3 cells, 5 µg/ml probe, anti-Fc FITC
[9] = biological target: Human 5T4 full length (human) (UniProt Q13641); assay: flow cytometry on MDAMB361 cells, 5 µg/ml probe, anti-Fc FITC
[10] = biological target: Human 5T4 full length (human) (UniProt Q13641); assay: flow cytometry on recombinant MDA-MB-231-5T4 FL cells at 5 µg/ml
[11] = biological target: Human 5T4 full length (human) (UniProt Q13641); assay: flow cytometry on MBA-MB-231 cells (as the row is labelled), 5 µg/ml probe, anti-Fc FITC
[12] = biological target: Human 5T4 full length (human) (UniProt Q13641); assay: flow cytometry on Rec-MDA-MB-231-5T4 cells (as the row is labelled), 5 µg/ml probe, anti-Fc FITC

Sequence of UniProt Q13641 (Q13641 32-420): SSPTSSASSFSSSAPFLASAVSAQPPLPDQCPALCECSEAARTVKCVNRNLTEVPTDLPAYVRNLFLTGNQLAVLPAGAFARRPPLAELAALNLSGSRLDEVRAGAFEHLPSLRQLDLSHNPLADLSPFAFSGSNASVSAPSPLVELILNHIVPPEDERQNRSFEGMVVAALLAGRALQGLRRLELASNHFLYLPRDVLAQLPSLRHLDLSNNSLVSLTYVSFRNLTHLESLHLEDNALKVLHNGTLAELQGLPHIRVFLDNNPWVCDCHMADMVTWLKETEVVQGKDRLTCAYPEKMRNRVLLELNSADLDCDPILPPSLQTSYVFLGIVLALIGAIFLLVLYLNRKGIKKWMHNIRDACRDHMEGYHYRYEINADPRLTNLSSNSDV

**Q.** For unrelated (control) Fc fusion protein, which Median fluorescence intensity (MFI) [1] is on record?
**A.** 6 MFI

**Q.** And the Median fluorescence intensity (MFI) [2]?
**A.** 3 MFI

**Q.** What about the Median fluorescence intensity (MFI) [3] of the same substance?
**A.** 13 MFI

**Q.** And the Median fluorescence intensity (MFI) [4]?
**A.** 14 MFI

**Q.** What about the Median fluorescence intensity (MFI) [5] of the same substance?
**A.** 12 MFI

**Q.** What about the Median fluorescence intensity (MFI) [6] of the same substance?
**A.** 14 MFI

**Q.** What about the Median fluorescence intensity (MFI) [7] of the same substance?
**A.** 23 MFI

**Q.** And the Median fluorescence intensity (MFI) [8]?
**A.** 6 MFI

**Q.** What about the Median fluorescence intensity (MFI) [9] of the same substance?
**A.** 5 MFI

**Q.** And the fold less binding (against the anti-5T4 proteins) [10]?
**A.** 200 fold

**Q.** And the Median fluorescence intensity (MFI) [11]?
**A.** 4 MFI

**Q.** And the Median fluorescence intensity (MFI) [12]?
**A.** 8 MFI
